Assay results: the Human Domainome abundance scans (Beltran et al. 2025)

B1: TOX high mobility group box family member 3, residues 256 to 323; numbered along this chain, O15405 (parent)
chain: QKPVSAYALFFRDTQAAIKGQNPNATFGEVSKIVASMWDSLGEEQKQVYKRKTEAAKKEYLKALAAYR

Variants of: B1
Assay: abundance fitness (aPCA) (normalised: wild type 0, dead -1); higher = more abundant; growth selection in yeast, the domain comes from the species named
Settings: Homo sapiens

Abundance fitness: each site, then its substitutions
N24: K 0.016 | P -0.848 | M -0.095 | G 0.096 | D -0.055 | R -0.063 | H 0.028 | A -0.183 | S 0.034 | E -0.001 | Q -0.353 | C -0.331 | L -0.304 | F -0.154 | Y -0.563 | V -0.591 | I -0.879 | T 0.026 | W -0.509
A17: R 0.083 | P -0.472 | Q -0.004 | T 0.035 | C -0.278 | Y -0.087 | G -0.19 | E -0.082 | H -0.044 | D -0.133 | M -0.169 | I -0.012 | F -0.071 | K 0.196 | N -0.185 | W -0.234 | V 0.017 | L -0.071
A25: M -0.212 | V -0.076 | C -0.369 | Q -0.328 | S -0.287 | G -0.696 | H -0.299 | R -0.088 | I -0.121 | L -0.155 | P -0.874 | N -0.677 | T -0.363
P23: V -0.677 | M -0.743 | Q -0.241 | E -0.558 | W -0.94 | S -0.335 | D -0.922 | K -0.37 | N -0.251 | T -0.898 | C -0.627 | I -0.521 | F -1.16 | Y -0.948 | H -0.615 | L -0.689 | R -0.454 | A -0.32
Q21: H -0.175 | Y -0.338 | M -0.199 | T -0.011 | N 0.048 | R 0.042 | I -0.346 | S -0.029 | G -0.289 | F -0.444 | C -0.256 | P -0.722 | W -0.388 | K 0.029 | D -0.126 | V -0.321 | A -0.051 | L -0.219
K19: S -0.127 | I -0.179 | E -0.256 | P -1.03 | A -0.051 | D -1.13 | H -0.197 | R -0.102 | L -0.166 | W -0.519 | V -0.122 | F -0.139 | N -0.557 | T -0.221 | M 0.027 | Y -0.151 | Q 0.069
N22: M -0.437 | S -0.451 | P -0.824 | A -0.476 | Q -0.182 | D -0.41 | F -0.298 | H 0.037 | I -0.515 | Y -0.121 | K -0.382 | T -0.293 | R -0.044 | E -0.443 | V -0.149
I18: F -0.746 | S -0.682 | N -0.72 | H -0.902 | E -0.837 | G -0.966 | R -0.707 | V 0.012 | C -0.685 | T -0.721 | D -1.11 | A -0.607 | Y 0.02 | K -1.18 | L -0.396 | Q -0.833 | P -1.03 | W -0.692
G20: W -0.455 | P -0.327 | L 0.145 | I -0.01 | A 0.129 | C -0.116 | M -0.222 | T 0.038 | H 0.013 | D 0.192 | V 0.039 | Y -0.361 | Q 0.224 | K -0.129 | S 0.1 | F -0.073 | E 0.085
A16: Q -0.133 | N 0.078 | P 0.067 | Y -0.564 | S -0.158 | H -0.09 | M -0.401 | W -0.324 | L -0.178 | T -0.047 | K 0.009 | G -0.209 | R 0.021 | I -0.071
